B1: Halo-TRAK2 [not stated] / Myc-KIF5B [mouse] (parent complex)
chain 1: MSQSQNAIFTSPTGEENLMNSNHRDSESITDVCSNEDLPEVELVSLLEEQLPQYRLKVDTLFLYENQDWTQSPHQRQHASDALSPVLAEETFRYMILGTDRVEQMTKTYNDIDMVTHLLAERDRDLELAARIGQALLKRNHVLSEQNESLEEQLGQAFDQVNQLQHELCKKDELLRIVSIASEESETDSSCSTPLRFNESFSLSQGLLQLEMLQEKLKELEEENMALRSKACHIKTETVTYEEKEQQLVSDCVKELRETNAQMSRMTEELSGKSDELIRYQEELSSLLSQIVDLQHKLKEHVIEKEELKLHLQASKDAQRQLTMELHELQDRNMECLGMLHESQEEIKELRSRSGPTAHLYFSQSYGAFTGESLAAEIEGTMRKKLSLDEESSLFKQKAQQKRVFDTVRIANDTRGRSISFPALLPIPGSNRSSVIMTAKPFESGLQQTEDKSLLNQGSSSEEVAGSSQKMGQPGPSGDSDLATALHRLSLRRQNYLSEKQFFAEEWQRKIQVLADQKEGVSGCVTPTESLASLCTTQSEITDLSSASCLRGFMPEKLQIVKPLEGSQTLYHWQQLAQPNLGTILDPRPGVITKGFTQLPGDAIYHISDLEEDEEEGITFQVQQPLEVEEKLSTSKPVTGIFLPPITSAGGPVTVATANPGKCLSCTNSTFTFTTCRILHPSDITQVTPSSGFPSLSCGSSGSSSSNTAVNSPALSYRLSIGESITNRRDSTTTFSSTMSLAKLLQERGISAKVYHSPISENPLQPLPKSLAIPSTPPNSPSHSPCPSPLPFEPRVHLSENFLASRPAETFLQEMYGLRPSRNPPDVGQLKMNLVDRLKRLGIARVVKNPGAQENGRCQEAEIGPQKPDSAVYLNSGSSLLGGLRRNQSLPVIMGSFAAPVCTSSPKMGVLKED
chain 2: MADPAECNIKVMCRFRPLNESEVNRGDKYVAKFQGEDTVMIASKPYAFDRVFQSSTSQEQVYNDCAKKIVKDVLEGYNGTIFAYGQTSSGKTHTMEGKLHDPEGMGIIPRIVQDIFNYIYSMDENLEFHIKVSYFEIYLDKIRDLLDVSKTNLSVHEDKNRVPYVKGCTERFVCSPDEVMDTIDEGKSNRHVAVTNMNEHSSRSHSIFLINVKQENTQTEQKLSGKLYLVDLAGSEKVSKTGAEGAVLDEAKNINKSLSALGNVISALAEGSTYVPYRDSKMTRILQDSLGGNCRTTIVICCSPSSYNESETKSTLLFGQRAKTIKNTVCVNVELTAEQWKKKYEKEKEKNKTLRNTIQWLENELNRWRNGETVPIDEQFDKEKANLEAFTADKDIAITSDKPAAAVGMAGSFTDAERRKCEEELAKLYKQLDDKDEEINQQSQLVEKLKTQMLDQEELLASTRRDQDNMQAELNRLQAENDASKEEVKEVLQALEELAVNYDQKSQEVEDKTKEYELLSDELNQKSATLASIDAELQKLKEMTNHQKKRAAEMMASLLKDLAEIGIAVGNNDVKQPEGTGMIDEEFTVARLYISKMKSEVKTMVKRCKQLESTQTESNKKMEENEKELAACQLRISQHEAKIKSLTEYLQNVEQKKRQLEESVDSLGEELVQLRAQEKVHEMEKEHLNKVQTANEVKQAVEQQIQSHRETHQKQISSLRDEVEAKEKLITDLQDQNQKMVLEQERLRVEHERLKATDQEKSRKLHELTVMQDRREQARQDLKGLEETVAKELQTLHNLRKLFVQDLATRVKKSAEVDSDDTGGSAAQKQKISFLENNLEQLTKVHKQLVRDNADLRCELPKLEKRLRATAERVKALESALKEAKENASRDRKRYQQEVDRIKEAVRSKNMARRGHSAQIAKPIRPGQHPAASPTHPGTVRGGGSFVQNNQPVGLRGGGGKQS

For two variants, response results are on record in publication PMC8319186, “Mitochondrial adaptor TRAK2 activates and functionally links opposing kinesin and dynein motors” (Nature Communications, 2021).

Variants of B1 are the subject of the experiment. The experiment can be described thus: co-immunoprecipitation (Halo antibody IP, western blot quantification); extracts from COS-7 cells transfected with Myc-KIF5B and Halo-tagged constructs; mean ± s.d. from three independent experiments; parent: 0.65; read off a plot. On the technique in general: In western blotting, separated proteins are transferred to a membrane and probed.
On to chain 1 A129V, chain 1 A130V, for which the response was ~0.61.

On to chain 1 I132D, for which the response was ~0.6.
